Kd data for 1 molecule are collected here from article PMC9021188 (2022).

Where two headings read alike, the source gives them in different places.

Targets include SARS-CoV RBD protein (SARS-CoV, UniProt P59594); GX-pangolin RBD protein (pangolin-CoV-GX); GD-pangolin RBD protein (pangolin-CoV-GD).
Common to all, as to assay: BLI
The target in assay [1] is RaTG13 RBD protein (RaTG13).
Assay [2] addresses RaTG13 RBD protein (RaTG13). This is another data set of the same source.

B1: GW01 (antibody, V domains shown)
VH: EVQLVESGGGVVQPGGSLRLSCAASGFRFDDHAMHWVRQAPGKGLEWVSVISGDGGSTYYADSVKGRFSISRDDSKNSLYLQMNSLRTEDTALYYCAKDRSYGPPDVFNYEYGMDVWGQGTTVTVSS
VL: not shown
In the case of B1, the Kd in the assay with SARS-CoV RBD protein was 1.49 nM; with RaTG13 RBD protein [1], 14.4 nM; with GX-pangolin RBD protein, 7.42 nM; with GD-pangolin RBD protein it was 4.05 nM; with RaTG13 RBD protein [2], 14.2 nM.

What is called Kd is the equilibrium constant for the complex coming apart.
